The results in this text go back to the RNAGym collection of RNA variant scans (doi:10.7554/elife.80360).

The labels stand for the following.
B1: Hairpin Ribozyme (parent)
chain: GUCCUCUUUCACGUGCGCGUGAAAGAGAGAAGUGAACCAGAGAAACACACGUUGUGGUAUAUUACCUGGUA

In the data set the parent is B1. Nature of the data set: self-cleavage, relative activity (ratio to wild type); higher = more cleavage; co-transcriptional.
For G19C A49U, the self-cleavage is 0.207. For the variant G19C C50U, the self-cleavage was found to be 0.397.

Consider G19C C50G, for which the self-cleavage was 0.196.

Take G19C A61C: the self-cleavage stood at 0.333. Under G19A U67G stands 0.199; under G19C A26C, 0.272.

As to G19C U62G, the self-cleavage was 0.282. On to G19U C46U, for which the self-cleavage worked out at 0.136. G19C G68U: the self-cleavage amounted to 0.213. Under G19A G25A stands 0.368; under G19A C46U, 0.165.

Take G19A C46A: the self-cleavage was determined as 0.176. As to G19U A64U, the self-cleavage came out at 0.217.

G19C A39U: the self-cleavage is 0.441. Under G19C A39C stands 0.44; under G19A G42A, 0.202; under G19C C66U, 0.528. For the variant G19C C66A, the self-cleavage came out at 0.238. Under G19C G32U stands 0.173; under G19C A43G, 0.219; under G19C A30C, 0.221. In the case of G19A A23U, the self-cleavage was 0.711. Under G19A A23C stands 0.763; under G19C A64U, 0.135. As for G19C A64C, the self-cleavage is 0.182.

With G19U C50U, the self-cleavage amounted to 0.33. Turning to G19U G34A, the self-cleavage amounted to 1.19. Under G19U C37U stands 0.588; under G19U C66G, 0.22; under G19A G51A, 1.07.

Consider G19A A30U, for which the self-cleavage worked out at 0.14. In the case of G19U G57A, the self-cleavage came out at 0.169.

G19U G68U: the self-cleavage came out at 0.338. Under G19A G40C stands 0.0669; under G19C G34U, 1.45. Under G19U G56C stands 0.223. Under G19U G56A stands 0.16; under G19C A45U, 0.142; under G19A A26U, 0.563.

As for G19A C48U, the self-cleavage was 0.179. Take G19A C48G: the self-cleavage came out at 0.153. Under G19C A36U stands 0.603; under G19U A61G, 0.231; under G19U A61C, 0.236. Under G19C A47C stands 0.207; under G19C A47U, 0.152; under G19U C48A, 0.135. Under G19A G54U stands 0.535; under G19A G54A, 0.51. G19A A41G: the self-cleavage is 0.754. Turning to G19C G54A, the self-cleavage turned out to be 0.432.

G19A A45G: the self-cleavage stood at 0.195.

G19A A45C: the self-cleavage is 0.108.

In the case of G19C U52C, the self-cleavage was 0.775. G19C U70G: the self-cleavage is 0.695. For G19C U70C, the self-cleavage is 0.879. Under G19C A23U stands 0.656. Under G19A A59G stands 0.2; under G19A A61C, 0.169.

As to G19C G21A, the self-cleavage is 0.657.

In the case of G19C U20G, the self-cleavage is 1.05. Under G19C U20A stands 0.965; under G19C U20C, 0.809; under G19A A64G, 0.579.

Take G19A U33A: the self-cleavage was 0.0829. As for G19C A35G, the self-cleavage is 0.74.

G19C G69C: the self-cleavage is 0.369.

On to G19C G69A, for which the self-cleavage came out at 0.403.

Turning to G19C U53G, the self-cleavage was 0.566. For the variant G19U A35U, the self-cleavage turned out to be 0.626. On to G19U A35G, for which the self-cleavage came out at 1.06. As to G19C G25C, the self-cleavage turned out to be 0.46.

On to G19C G56C, for which the self-cleavage turned out to be 0.124. As for G19U A31C, the self-cleavage was found to be 0.0951.

With C18U U60C, the self-cleavage turned out to be 1.28.

With C18U U60G, the self-cleavage was determined as 0.719.

As to G19A A36G, the self-cleavage came to 0.997. Under G19A A49C stands 0.131; under G19A A49U, 0.17; under G19C G29U, 0.159. For C18U U70G, the self-cleavage amounted to 0.973. Under G19U G25A stands 0.33; under G19U G25C, 0.537. Regarding G19U G25U, the self-cleavage was 0.548. For the variant G19A U70A, the self-cleavage was 0.599.

G19C A22G: the self-cleavage was found to be 0.866. Regarding G19C A22C, the self-cleavage turned out to be 0.702.

For the variant G19C A44C, the self-cleavage came out at 0.152. For G19U G42U, the self-cleavage came out at 0.346. As to G19U G42A, the self-cleavage was 0.175. Under G19C C65U stands 0.337. Consider G19A U58C, for which the self-cleavage came to 0.856.

As to G19C U33C, the self-cleavage was found to be 0.173. As for G19C U33A, the self-cleavage came out at 0.125. With G19U A23C, the self-cleavage came out at 0.666. Under G19U A23U stands 0.944. Under G19A U52A stands 0.809; under G19A U20G, 0.786; under G19A G57U, 0.289. Under G19A C37A stands 0.264; under G19A G32C, 0.111. In the case of G19A A22G, the self-cleavage is 0.714. As to G19A A22U, the self-cleavage came out at 0.531. Regarding G19U G27C, the self-cleavage worked out at 0.318. Consider G19U G27U, for which the self-cleavage was 0.262. Under G19U A28G stands 1; under G19A A47C, 0.308; under G19U G40C, 0.11. For the variant G19C A28U, the self-cleavage is 0.63. Under G19A A71C stands 1.38; under G19A C66A, 0.314.

G19A C66U: the self-cleavage is 0.344. Under G19A C66G stands 0.168; under G19A G21U, 0.727; under G19U G21C, 0.692. Take G19A A24G: the self-cleavage amounted to 0.737.

In the case of G19A U63C, the self-cleavage is 0.213.

Turning to G19A U63A, the self-cleavage was 0.104. With G19U A49G, the self-cleavage was found to be 0.545. Under G19U A49C stands 0.18; under G19U A43U, 0.134; under G19U A43G, 0.136. In the case of G19A G56A, the self-cleavage is 0.124. In the case of G19A G56C, the self-cleavage worked out at 0.136. For G19C G57U, the self-cleavage came out at 0.275. Under G19C G57C stands 0.25; under G19A A28C, 0.417.

Consider G19U A45U, for which the self-cleavage amounted to 0.145.

Take G19U A45C: the self-cleavage came out at 0.292. Under G19U A45G stands 0.228. Under G19U G29C stands 0.0899. Consider G19U A47G, for which the self-cleavage was found to be 0.24. Under G19U A47C stands 0.418. G19C A41G: the self-cleavage worked out at 0.743. Under G19U A41G stands 0.913; under G19U A41C, 0.899. Under G19U G69A stands 0.32; under G19C G40C, 0.191. With G19C U55G, the self-cleavage was 0.335.

For the variant G19C U55A, the self-cleavage amounted to 0.17. On to G19C A71C, for which the self-cleavage amounted to 1.24. G19A U62A: the self-cleavage is 0.0978. G19A G34C: the self-cleavage was 1.32. On to G19A G34A, for which the self-cleavage was determined as 1.02. Under G19A G34U stands 1.18; under G19C G51A, 0.903. Take G19C G51C: the self-cleavage stood at 0.775. Regarding G19C G51U, the self-cleavage stood at 0.973. Turning to G19C C38G, the self-cleavage stood at 0.142. Under G19U G51C stands 0.707; under G19U G51U, 0.947. Under G19U G51A stands 0.956. On to G19U A36C, for which the self-cleavage is 0.554. Take G19U A36G: the self-cleavage is 1. Under G19U A36U stands 0.628; under G19U A71C, 1.39; under G19U A71U, 0.738.

On to G19U A44G, for which the self-cleavage came out at 0.163. G19A C38A: the self-cleavage came to 0.153. Under G19A A31C stands 0.136; under G19A A31U, 0.176. Under C18U U62A stands 0.225.

Take G19A G27A: the self-cleavage is 0.243. Under G19A G27C stands 0.321; under G19C C37G, 0.356. For G19C C37A, the self-cleavage turned out to be 0.32. On to G19C C37U, for which the self-cleavage is 0.454.
